According to patent publication US11472877 (Alector, dated 2022):
Substitutions are numbered along the chain they refer to. Values belong to the binder of their own block, whether it stands above or below them.

Columns and labels:
[1] = molecular target: T1, human TREM2 on BWZ cells (human, UniProt Q9NZC2 19-230); experiment: FACS, BWZ human TREM2
T1 construct: whole, on cells; not tied to the cell line; also called BWZ Human TREM2
T1 sequence (looked up): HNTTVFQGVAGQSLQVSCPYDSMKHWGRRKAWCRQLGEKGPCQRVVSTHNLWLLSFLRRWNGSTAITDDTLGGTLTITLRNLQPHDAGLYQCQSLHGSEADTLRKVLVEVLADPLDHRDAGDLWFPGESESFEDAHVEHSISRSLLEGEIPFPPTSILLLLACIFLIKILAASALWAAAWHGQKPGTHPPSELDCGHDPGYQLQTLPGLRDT

[2] = molecular target: T2, mouse TREM1 on CHO cells (mouse, UniProt Q9JKE2 21-230); experiment: FACS, CHO mouse TREM1
T2 construct: also called CHO-mT1
T2 sequence: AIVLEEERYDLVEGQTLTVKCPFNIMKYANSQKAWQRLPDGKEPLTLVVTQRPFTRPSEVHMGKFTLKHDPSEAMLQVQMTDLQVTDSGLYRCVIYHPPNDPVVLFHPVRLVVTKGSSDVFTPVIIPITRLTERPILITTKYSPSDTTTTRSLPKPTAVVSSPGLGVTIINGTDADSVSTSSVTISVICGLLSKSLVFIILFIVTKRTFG

[3] = molecular target: T3, mouse TREM2 on BWZ cells (mouse, UniProt Q99NH8 19-227); experiment: FACS, BWZ mouse TREM2
T3 construct: whole, on cells; also called BWZ Mouse TREM2
T3 sequence (looked up): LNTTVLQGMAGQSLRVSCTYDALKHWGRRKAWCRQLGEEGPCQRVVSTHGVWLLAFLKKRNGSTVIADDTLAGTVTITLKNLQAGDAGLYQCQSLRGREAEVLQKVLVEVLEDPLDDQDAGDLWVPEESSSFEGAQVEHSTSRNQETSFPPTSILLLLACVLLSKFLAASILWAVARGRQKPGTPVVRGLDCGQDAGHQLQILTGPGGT

[4] = molecular target: T1, human TREM2 on BWZ cells; experiment: FACS, BWZ cells
[5] = molecular target: T3, mouse TREM2 on BWZ cells; experiment: FACS, BWZ cells

FOB Fold Over Background [1]: 0.7 fold
FOB Fold Over Background [2]: 401 fold
FOB Fold Over Background [3]: 1.2 fold
binding result [4]: no binding
binding result [5]: no binding
B1: T1-29 (antibody, IgG1, V domains shown)
VH: QLQLQESGPGLVKPSETLSLTCTVSGGSISSSSYYWGWIRQPPGKGLEWIGSIYYSGSTYYNPSLKSRVTISVDTSKNQFSLKLSSVTAADTAVYYCARDGGGTAQADGAYYYGMDVWGQGTTVTVSS
VL: EIVLTQSPATLSLSPGERATLSCRASQSVSSYLAWYQQKPGQAPRLLIYDASNRATGIPARFSGSGSGTDFTLTISSLEPEDFAVYYCQQGVNYPFTFGGGTKVEIK
notes: huIgG1; also called TI-29

FOB Fold Over Background [1]: 0.7 fold
FOB Fold Over Background [2]: 0.9 fold
FOB Fold Over Background [3]: 1.3 fold
binding result [4]: no binding
binding result [5]: no binding
B3: T1-25 (antibody, IgG1, V domains shown)
VH: EVQLVESGGGLVQPGRSLRLSCAASGFTFDDYAMHWVRQAPGKGLEWVSGISWNSGSIGYADSVKGRFTISRDNAKNSLYLQMNSLRAEDTALYYCAKGGSRYSHFDYWGQGTLVTVSS
VL: B1 VL with G91R, V92S, N93V, Y94L, F96L
notes: huIgG1; also called TI-25; ADI-19092

FOB Fold Over Background [1]: 0.9 fold
FOB Fold Over Background [2]: 380 fold
FOB Fold Over Background [3]: 1.2 fold
binding result [4]: no binding
binding result [5]: no binding
B4: T1-32 (antibody, IgG1, V domains shown)
VH: QLQLQESGPGLVKPSETLSLTCTVSGGSISSSSYYWGWIRQPPGKGLEWIGSIYYSGSTYYNPSLKSRVTISVDTSKNQFSLKLSSVTAADTAVYYCARDAPAVVGESPAFDIWGQGTMVTVSS
VL: DIQMTQSPSSLSASVGDRVTITCRASQSISRYLNWYQQKPGKAPKLLIYAASSLQSGVPSRFSGSGSGTDFTLTISSLQPEDFATYYCQQSLDLPFTFGGGTKVEIK
notes: huIgG1; also called TI-32

FOB Fold Over Background [1]: 0.8 fold
FOB Fold Over Background [2]: 523 fold
FOB Fold Over Background [3]: 1.2 fold
binding result [4]: no binding
binding result [5]: no binding
B6: T1-27 (antibody, IgG1, V domains shown)
VH: QVQLQESGPGLVKPSQTLSLTCTVSGGSISSGGYYWSWIRQHPGKGLEWIGYIYYSGSTYYNPSLKSRVTISVDTSKNQFSLKLSSVTAADTAVYYCARDSSIAGRATLSFDYWGQGTLVTVSS
VL: B4 VL with R31S, L92F, D93Y, L94D, F96I
notes: huIgG1; also called TI-27

Continued, binder first:

B2: T1-16 (antibody, IgG1, V domains shown)
VH: B3 VH with G100P, S101R, R102M, Y103S, S104G, H105W, F106W, D107A, Y108D
VL: B4 VL with L11V, S28G, R31S, Y32W, N34A, S91A, L92D, D93T, F96I
notes: huIgG1; also called TI-16; ADI-19083
FOB Fold Over Background [1]: 0.7 fold
FOB Fold Over Background [2]: 1 fold
FOB Fold Over Background [3]: 1.2 fold
binding result [4]: no binding
binding result [5]: no binding

B5: T1-24 (antibody, IgG1, V domains shown)
VH: B3 VH with S52T, G100P, S101R, R102L, Y103L, H105A, F106L, Y108V, L114M
VL: DIQMTQSPSTLSASVGDRVTITCRASQSISSWLAWYQQKPGKAPKLLIYKASSLESGVPSRFSGSGSGTEFTLTISSLQPDDFATYYCQQDSIYPITFGGGTKVEIK
notes: huIgG1; also called TI-24; ADI-19150
FOB Fold Over Background [1]: 1.4 fold
FOB Fold Over Background [2]: 1.3 fold
FOB Fold Over Background [3]: 1.2 fold
binding result [4]: no binding
binding result [5]: no binding

B7: T1-19 (antibody, IgG1, V domains shown)
VH: EVQLVESGGGLVQPGGSLRLSCAASGFTFSDHHMDWVRQAPGKGLEWVGRTRNKANSYTTEYAASVKGRFTISRDDSKNSLYLQMNSLKTEDTAVYYCARGPLGYKLWGQGTLVTVSS
VL: DIQMTQSPSSVSASVGDRVTITCRASQGISSWLAWYQQKPGKAPKLLIYAASNLQSGVPSRFSGSGSGTDFTLTISSLQPEDFATYYCQQANSFPLTFGGGTKVEIK
notes: huIgG1; also called TI-19; ADI-19086
FOB Fold Over Background [1]: 0.5 fold
FOB Fold Over Background [2]: 0.9 fold
FOB Fold Over Background [3]: 0.8 fold
binding result [4]: no binding
binding result [5]: no binding

B8: T1-23 (antibody, IgG1, V domains shown)
VH: B3 VH with S52T, G100P, S101R, R102L, Y103L, H105A, F106L, Y108V, L114M
VL: B5 VL with S30G, D91H, S92Q, I93S, Y94F, P95S, I96P
notes: huIgG1; also called TI-23; ADI-19090
FOB Fold Over Background [1]: 1 fold
FOB Fold Over Background [2]: 1 fold
FOB Fold Over Background [3]: 1.2 fold
binding result [4]: no binding
binding result [5]: no binding
